Consider 1 molecule from publication PMC10896785.

This experiment deals with heat shock protein 90 (Hsp90), endogenous mouse, P07901. Nature of the experiment: in situ proximity-ligation assay (PLA). Conditions: chain shown with the change; primary mouse embryonic fibroblasts (MEFs); anti-FKBP51 and anti-Hsp90 antibodies; parent: est. 240; read off a plot.

B1: FK506-binding protein 51 kDa (FKBP51), wild-type mouse, Q64378 K352A; R356A (protein)
chain: MTTDEGTSNNGENPAATMTEQGEDITTKKDRGVLKIVKRVGTSDEAPMFGDKVYVHYKGMLSDGKKFDSSHDRKKPFAFSLGQGQVIKAWDIGVSTMKKGEICHLLCKPEYAYGSAGHLQKIPSNATLFFEIELLDFKGEDLFEDSGVIRRIKRKGEGYSNPNEGATVKVHLEGCCGGRTFDCRDVVFVVGEGEDHDIPIGIDKALVKMQREEQCILYLGPRYGFGEAGKPKFGIDPNAELMYEVTLKSFEKAKESWEMDTKEKLTQAAIVKEKGTVYFKGGKYTQAVIQYRKIVSWLEMEYGLSEKESKASESFLLAAFLNLAMCYLKLREYNKAVECCDKALGLDSANEAGLYARGEAQLLMNDFESAKGDFEKVLAVNPQNRAARLQISMCQRKAKEHNERDRRVYANMFKKFAERDAKEEASKAGSKKAVEGAAGKQHESQAMEEGKAKGHV
On to B1, for which the response (PLA dots/Nuclei) came out at 73.
